In patent US20190016794A1 (Boehringer Ingelheim, published 2019):
Numbering of substitutions follows the chain as printed. Each block holds one binder with its values, some of them ahead of it.

How the values were obtained:
human TNF-alpha [1] = biological target: T1, human TNF-alpha (human, UniProt P01375 77-233); experiment: cell-based or functional assay
recombinant human IL23 [2] = biological target: T2, recombinant human IL23 (human, UniProt P29460 23-328); experiment: cell-based or functional assay
T2 sequence 1: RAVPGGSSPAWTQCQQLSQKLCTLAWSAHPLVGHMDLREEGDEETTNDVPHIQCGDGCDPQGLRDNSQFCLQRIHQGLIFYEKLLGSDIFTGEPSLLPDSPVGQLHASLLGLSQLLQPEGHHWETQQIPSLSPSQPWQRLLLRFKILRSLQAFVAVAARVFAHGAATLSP
T2 sequence 2: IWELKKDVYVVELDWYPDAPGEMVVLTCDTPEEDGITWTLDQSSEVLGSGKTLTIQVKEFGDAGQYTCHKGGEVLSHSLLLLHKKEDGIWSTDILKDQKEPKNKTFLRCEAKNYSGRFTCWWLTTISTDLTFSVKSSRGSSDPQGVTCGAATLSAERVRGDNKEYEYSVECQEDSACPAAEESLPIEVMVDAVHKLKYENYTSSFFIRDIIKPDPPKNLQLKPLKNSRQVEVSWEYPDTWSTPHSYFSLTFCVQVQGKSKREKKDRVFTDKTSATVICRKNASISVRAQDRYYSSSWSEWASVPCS

recombinant human IL23 [3] = biological target: T2, recombinant human IL23; experiment: cell-based or functional assay; remark: listed apart in the source
cynomolgus TNF-alpha = cynomolgus TNF-alpha (cynomolgus, UniProt P79337 77-233, limits assumed); experiment: cell-based or functional assay
Sequence of cynomolgus TNF-alpha (P79337 77-233 limits assumed): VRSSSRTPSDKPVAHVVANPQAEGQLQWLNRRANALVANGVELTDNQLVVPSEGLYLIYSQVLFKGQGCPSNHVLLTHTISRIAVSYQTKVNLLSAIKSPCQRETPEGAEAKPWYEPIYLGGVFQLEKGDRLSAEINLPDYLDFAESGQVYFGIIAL

human TNF-alpha [4] = biological target: T1, human TNF-alpha; experiment: cell-based or functional assay; remark: listed apart in the source
human TNF-alpha [5] = biological target: T1, human TNF-alpha; experiment: cell-based or functional assay; remark: listed apart in the source
recombinant human IL23 [6] = biological target: T2, recombinant human IL23; experiment: cell-based or functional assay; remark: listed apart in the source
[7] = biological target: T3, recombinant cynomolgus IL23 (cynomolgus); experiment: cell-based or functional assay
T3 chain 1: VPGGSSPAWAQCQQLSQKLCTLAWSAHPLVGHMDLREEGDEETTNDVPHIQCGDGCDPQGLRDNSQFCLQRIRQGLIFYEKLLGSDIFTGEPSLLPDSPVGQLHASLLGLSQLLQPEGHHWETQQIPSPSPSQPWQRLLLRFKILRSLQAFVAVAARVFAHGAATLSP
T3 chain 2: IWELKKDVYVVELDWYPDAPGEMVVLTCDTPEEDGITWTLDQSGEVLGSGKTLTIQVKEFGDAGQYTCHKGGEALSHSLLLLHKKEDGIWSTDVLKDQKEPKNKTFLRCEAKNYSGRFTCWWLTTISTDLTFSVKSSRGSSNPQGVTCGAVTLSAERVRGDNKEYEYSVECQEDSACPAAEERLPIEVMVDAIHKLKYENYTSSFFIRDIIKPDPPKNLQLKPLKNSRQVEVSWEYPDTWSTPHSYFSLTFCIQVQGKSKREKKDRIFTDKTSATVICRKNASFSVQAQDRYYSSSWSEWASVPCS

human TNF-alpha [8] = biological target: T1, human TNF-alpha; experiment: cell-based or functional assay; remark: listed apart in the source
recombinant human IL23 [9] = biological target: T2, recombinant human IL23; experiment: cell-based or functional assay; remark: listed apart in the source
membrane bound TNF-alpha [10] = biological target: T4, membrane bound TNF-alpha; experiment: flow cytometry, mTNF-transfected CHO cells (geomean)
T4 construct: whole, on cells; also called mTNF; membrane expressed TNF-alpha
T4 sequence (P01375 whole entry): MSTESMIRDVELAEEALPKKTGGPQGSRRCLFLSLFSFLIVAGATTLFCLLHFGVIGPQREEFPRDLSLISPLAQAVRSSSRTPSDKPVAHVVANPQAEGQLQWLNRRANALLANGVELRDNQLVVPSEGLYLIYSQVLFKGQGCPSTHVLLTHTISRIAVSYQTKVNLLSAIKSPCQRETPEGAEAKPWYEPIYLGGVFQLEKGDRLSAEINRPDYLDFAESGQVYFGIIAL
Procedure: (§1) All reagents were prepared in flow cytometry staining buffer (BioLegend). Membrane expressed TNF-alpha transfected cell lines (Jurkat and CHO) and parental cell lines were harvested from tissue culture vessels, washed, counted and resuspended to 1×10̂6 cells/ml in flow cytometry staining buffer. One hundred microliters of the cell suspension was added to 96 well microtiter plates and placed on ice. Titrations of test compounds were prepared and 50 uL was added to the cells. After sixty minute incubation on ice, the cell+test compounds were washed and 50 uL of a secondary antibody (Jackson ImmunoResearch) was added. The samples were incubated in the dark, at 4 C, for 60 minutes, followed by washes. After a final wash the cells were resuspended in 60 uL of fixative (BD Bioscience). Median fluorescence was determined for each sample in a flow cytometer and plotted versus the concentration of the test sample. EC₅₀ values were calculated using the 4 Parameter Logistic enabled by the Excel add-in XLfit (Activity Base software, ID Business Solutions, Ltd.).

membrane bound TNF-alpha [11] = biological target: T4, membrane bound TNF-alpha; experiment: flow cytometry, mTNF-transfected Jurkat cells (geomean)
Procedure: as §1

T1 sequence (P01375 77-233 limits assumed): as the sequence (P79337 77-233 limits assumed) above, with V37L, T44R, N72T, L138R counted along it

- Dual Phospho Jurkat-pNf-Kb IC50 (human TNF-alpha [1]): 290 pM
- Dual Phospho Jurkat-pNf-Kb IC90 (human TNF-alpha [1]): 340 pM
- Dual Phospho DB-pSTAT3 IC50 (recombinant human IL23 [2]): 340 pM
- Dual Phospho DB-pSTAT3 IC90 (recombinant human IL23 [2]): 630 pM
- hIL23 pSTAT3 DB assay IC50 (recombinant human IL23 [3]): 300 pM
- hIL23 pSTAT3 DB assay IC90 (recombinant human IL23 [3]): 620 pM
- HeLa IL8 Cyno-TNF IC50 (cynomolgus TNF-alpha): 0.21 nM
- HeLa IL8 Cyno-TNF IC90 (cynomolgus TNF-alpha): 0.81 nM
- HeLa IL8 Hi-Hu-TNF IC50 (human TNF-alpha [4]): 0.41 nM
- HeLa IL8 Hi-Hu-TNF IC90 (human TNF-alpha [4]): 0.81 nM
- HeLa IL8 Lo-Hu-TNF IC50 (human TNF-alpha [4]): 0.0092 nM
- HeLa IL8 Lo-Hu-TNF IC90 (human TNF-alpha [4]): 0.036 nM
- TNF-IL8 Whole Blood IC50 (human TNF-alpha [5]): 0.29 nM
- TNF-IL8 Whole Blood IC90 (human TNF-alpha [5]): 0.42 nM
- huIL23 MSA IC50 (recombinant human IL23 [6]): 0.2 nM
- huIL23 MSA IC90 (recombinant human IL23 [6]): 1.4 nM
- CynoIL23 MSA IC50 [7]: 0.097 nM
- CynoIL23 MSA IC90 [7]: 1.5 nM
- IL23A pSTAT3 (MG) IC50 (recombinant human IL23 [9]): 69 pM
- IL23A pSTAT3 (MG) IC90 (recombinant human IL23 [9]): 480 pM
B1: Compound P (bispecific antibody)
chain 1: not shown
chain 2: EIVLTQSPATLSLSPGERATLSCRASQSVYSYLAWYQQKPGQAPRLLIYDASNRATGIPARFSGSGSGTDFTLTISSLEPEDFAVYYCQQRSNWPPFTFGPGTKVDIKGGGSGGGGQVQLVQSGAEVKKPGSSVKVSCKASGYTFTDQTIHWMRQAPGQGLEWIGYIYPRDDSPKYNENFKGKVTITADKSTSTAYMELSSLRSEDTAVYYCAIPDRSGYAWFIYWGQGTLVTVSSVEPKSSRTVAAPSVFIFPPSDEQLKSGTASVVCLLNNFYPREAKVQWKVDNALQSGNSQESVTEQDSKDSTYSLSSTLTLSKADYEKHKVYACEVTHQGLSSPVTKSFNRGEC
- L929 TNF Cytotox IC50 (human TNF-alpha [8]): 0.0034 nM
- L929 TNF Cytotox IC90 (human TNF-alpha [8]): 0.014 nM

- Dual Phospho Jurkat-pNf-Kb IC50 (human TNF-alpha [1]): 210 pM
- Dual Phospho Jurkat-pNf-Kb IC90 (human TNF-alpha [1]): 740 pM
- Dual Phospho DB-pSTAT3 IC50 (recombinant human IL23 [2]): 210 pM
- Dual Phospho DB-pSTAT3 IC90 (recombinant human IL23 [2]): 580 pM
- EC50 (membrane bound TNF-alpha [10]): 0.77 nM
- hIL23 pSTAT3 DB assay IC50 (recombinant human IL23 [3]): 300 pM
- hIL23 pSTAT3 DB assay IC90 (recombinant human IL23 [3]): 720 pM
- HeLa IL8 Cyno-TNF IC50 (cynomolgus TNF-alpha): 0.3 nM
- HeLa IL8 Cyno-TNF IC90 (cynomolgus TNF-alpha): 0.97 nM
- HeLa IL8 Hi-Hu-TNF IC50 (human TNF-alpha [4]): 0.43 nM
- HeLa IL8 Hi-Hu-TNF IC90 (human TNF-alpha [4]): 0.76 nM
- HeLa IL8 Lo-Hu-TNF IC50 (human TNF-alpha [4]): 0.0099 nM
- HeLa IL8 Lo-Hu-TNF IC90 (human TNF-alpha [4]): 0.043 nM
- TNF-IL8 Whole Blood IC50 (human TNF-alpha [5]): 0.32 nM
- TNF-IL8 Whole Blood IC90 (human TNF-alpha [5]): 0.47 nM
- huIL23 MSA IC50 (recombinant human IL23 [6]): 0.21 nM
- huIL23 MSA IC90 (recombinant human IL23 [6]): 2.2 nM
- CynoIL23 MSA IC50 [7]: 0.12 nM
- CynoIL23 MSA IC90 [7]: 0.8 nM
- EC50 (membrane bound TNF-alpha [11]): 0.27 nM
- IL23A pSTAT3 (MG) IC50 (recombinant human IL23 [9]): 160 pM
- IL23A pSTAT3 (MG) IC90 (recombinant human IL23 [9]): 650 pM
B2: Compound O (bispecific antibody)
chain 1: not shown
chain 2: B1 chain 2 with V237L, E238G, P239G, K240G, S242G
notes: GS linkers, isotype IgG1KO; counterpart of Compound E without YTE; also called Compound 0
- L929 TNF Cytotox IC50 (human TNF-alpha [8]): 0.0042 nM
- L929 TNF Cytotox IC90 (human TNF-alpha [8]): 0.016 nM

- Dual Phospho Jurkat-pNf-Kb IC50 (human TNF-alpha [1]): 280 pM
- Dual Phospho Jurkat-pNf-Kb IC90 (human TNF-alpha [1]): 760 pM
- Dual Phospho DB-pSTAT3 IC50 (recombinant human IL23 [2]): 360 pM
- Dual Phospho DB-pSTAT3 IC90 (recombinant human IL23 [2]): 980 pM
- hIL23 pSTAT3 DB assay IC50 (recombinant human IL23 [3]): 260 pM
- hIL23 pSTAT3 DB assay IC90 (recombinant human IL23 [3]): 600 pM
- HeLa IL8 Cyno-TNF IC50 (cynomolgus TNF-alpha): 0.19 nM
- HeLa IL8 Cyno-TNF IC90 (cynomolgus TNF-alpha): 0.74 nM
- HeLa IL8 Hi-Hu-TNF IC50 (human TNF-alpha [4]): 0.35 nM
- HeLa IL8 Hi-Hu-TNF IC90 (human TNF-alpha [4]): 0.66 nM
- HeLa IL8 Lo-Hu-TNF IC50 (human TNF-alpha [4]): 0.0079 nM
- HeLa IL8 Lo-Hu-TNF IC90 (human TNF-alpha [4]): 0.039 nM
- TNF-IL8 Whole Blood IC50 (human TNF-alpha [5]): 0.31 nM
- TNF-IL8 Whole Blood IC90 (human TNF-alpha [5]): 0.45 nM
- huIL23 MSA IC50 (recombinant human IL23 [6]): 0.17 nM
- huIL23 MSA IC90 (recombinant human IL23 [6]): 2.3 nM
- CynoIL23 MSA IC50 [7]: 0.069 nM
- CynoIL23 MSA IC90 [7]: 1.5 nM
- IL23A pSTAT3 (MG) IC50 (recombinant human IL23 [9]): 90 pM
- IL23A pSTAT3 (MG) IC90 (recombinant human IL23 [9]): 650 pM
B3: Compound F (bispecific antibody)
chain 1: DIQMTQSPSSLSASVGDRVTITCKASRDVAIAVAWYQQKPGKVPKLLIYWASTRHTGVPSRFSGSGSRTDFTLTISSLQPEDVADYFCHQYSSYPFTFGSGTKLEIKGGGSGGGGQVQLVESGGGVVQPGRSLRLSCAASGFIFSSYAMHWVRQAPGNGLEWVAFMSYDGSNKKYADSVKGRFTISRDNSKNTLYLQMNSLRAEDTAVYYCARDRGIAAGGNYYYYGMDVWGQGTTVTVSSFNRGESASTKGPSVFPLAPSSKSTSGGTAALGCLVKDYFPEPVTVSWNSGALTSGVHTFPAVLQSSGLYSLSSVVTVPSSSLGTQTYICNVNHKPSNTKVDKRVEPKSCDKTHTCPPCPAPEAAGGPSVFLFPPKPKDTLYITREPEVTCVVVDVSHEDPEVKFNWYVDGVEVHNAKTKPREEQYNSTYRVVSVLTVLHQDWLNGKEYKCKVSNKALPAPIEKTISKAKGQPREPQVYTLPPSREEMTKNQVSLTCLVKGFYPSDIAVEWESNGQPENNYKTTPPVLDSDGSFFLYSKLTVDKSRWQQGNVFSCSVMHEALHNHYTQKSLSLSPGK
chain 2: B1 chain 2
- L929 TNF Cytotox IC50 (human TNF-alpha [8]): 0.0025 nM
- L929 TNF Cytotox IC90 (human TNF-alpha [8]): 0.01 nM
